Test [1] has as its target T1, grancalcin, transcript variant 4 (human, UniProt P28676 1-217).
T1 construct: on protein array; also called GCA
T1 sequence: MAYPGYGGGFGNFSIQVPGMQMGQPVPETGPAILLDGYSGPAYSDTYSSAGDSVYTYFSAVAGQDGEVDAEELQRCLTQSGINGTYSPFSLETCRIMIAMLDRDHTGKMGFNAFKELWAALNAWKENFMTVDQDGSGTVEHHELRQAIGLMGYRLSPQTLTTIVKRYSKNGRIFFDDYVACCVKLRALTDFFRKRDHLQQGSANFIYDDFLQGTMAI
The test can be described thus: protein array.

The next test has as its target T2, F-box protein 2 (human, UniProt Q9UK22 1-296).
T2 construct: on protein array; also called FBXO2
T2 sequence: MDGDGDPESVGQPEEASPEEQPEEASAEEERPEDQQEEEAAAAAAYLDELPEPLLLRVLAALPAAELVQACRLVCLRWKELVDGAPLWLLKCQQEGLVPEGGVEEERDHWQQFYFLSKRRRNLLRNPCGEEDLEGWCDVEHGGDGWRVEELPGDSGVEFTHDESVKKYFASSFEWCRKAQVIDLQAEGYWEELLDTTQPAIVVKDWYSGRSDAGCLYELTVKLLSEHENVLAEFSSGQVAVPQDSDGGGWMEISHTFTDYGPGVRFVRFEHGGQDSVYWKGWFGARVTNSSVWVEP
The test can be described thus: protein array.

The target in another test is T3, tubulin gamma 1 (human, UniProt P23258 1-451).
T3 construct: on protein array; also called TUBG1
The test can be described thus: protein array.

Test [2] has as its target T4, sorting nexin 1, transcript variant 1 (human, UniProt Q13596 1-522).
T4 construct: on protein array; also called SNX1
The test can be described thus: protein array.

Test [3] addresses T5, Rna polymerase iii subunit g (human, UniProt O15318 1-223).
T5 construct: on protein array; also called POLR3G
T5 sequence: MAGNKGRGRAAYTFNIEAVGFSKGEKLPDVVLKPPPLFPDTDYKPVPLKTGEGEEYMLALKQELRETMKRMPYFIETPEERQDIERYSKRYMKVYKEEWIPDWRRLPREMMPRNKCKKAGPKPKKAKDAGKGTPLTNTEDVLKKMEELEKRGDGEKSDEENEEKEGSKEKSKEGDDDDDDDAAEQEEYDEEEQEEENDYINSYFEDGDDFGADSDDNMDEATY
The test can be described thus: protein array.

A further test concerns the target T6, Deoxyhypusine synthase (human, UniProt P49366 1-369).
T6 construct: on protein array; also called DHPS
T6 sequence: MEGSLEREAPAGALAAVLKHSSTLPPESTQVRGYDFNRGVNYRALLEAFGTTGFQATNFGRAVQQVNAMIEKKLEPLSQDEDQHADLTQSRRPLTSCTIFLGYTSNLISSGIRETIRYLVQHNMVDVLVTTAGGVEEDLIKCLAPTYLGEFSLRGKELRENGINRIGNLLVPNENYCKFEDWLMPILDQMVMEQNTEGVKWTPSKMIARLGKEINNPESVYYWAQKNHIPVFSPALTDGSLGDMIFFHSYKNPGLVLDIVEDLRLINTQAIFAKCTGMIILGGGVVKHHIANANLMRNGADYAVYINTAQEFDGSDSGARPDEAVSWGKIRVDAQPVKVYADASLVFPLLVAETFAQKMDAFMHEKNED
The test can be described thus: protein array.

The target in test [4] is T7, CRK like proto-oncogene, adaptor protein, transcript variant 1 (human, UniProt P46109 1-303).
T7 construct: on protein array
The test can be described thus: protein array, with experimental replicate.

Test [5] addresses T8, nudix hydrolase 22, transcript variant 2 (human, UniProt Q9BRQ3 1-303).
T8 construct: on protein array; also called NUDT22
T8 chain: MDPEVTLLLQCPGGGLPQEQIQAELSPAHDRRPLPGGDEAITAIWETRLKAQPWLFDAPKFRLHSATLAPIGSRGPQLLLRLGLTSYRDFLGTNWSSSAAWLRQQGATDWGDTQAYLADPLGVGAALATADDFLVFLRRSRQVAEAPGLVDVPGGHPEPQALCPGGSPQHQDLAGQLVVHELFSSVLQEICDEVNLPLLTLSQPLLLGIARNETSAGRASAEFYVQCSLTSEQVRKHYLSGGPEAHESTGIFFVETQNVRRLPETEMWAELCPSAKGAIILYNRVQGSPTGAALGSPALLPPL
The test can be described thus: protein array.

For test [6], the target named is T9, Vezatin, adherens junctions transmembrane protein (human, UniProt Q9HBM0 56-779 at identity 0.99)).
T9 construct: on protein array; also called VEZT
T9 chain: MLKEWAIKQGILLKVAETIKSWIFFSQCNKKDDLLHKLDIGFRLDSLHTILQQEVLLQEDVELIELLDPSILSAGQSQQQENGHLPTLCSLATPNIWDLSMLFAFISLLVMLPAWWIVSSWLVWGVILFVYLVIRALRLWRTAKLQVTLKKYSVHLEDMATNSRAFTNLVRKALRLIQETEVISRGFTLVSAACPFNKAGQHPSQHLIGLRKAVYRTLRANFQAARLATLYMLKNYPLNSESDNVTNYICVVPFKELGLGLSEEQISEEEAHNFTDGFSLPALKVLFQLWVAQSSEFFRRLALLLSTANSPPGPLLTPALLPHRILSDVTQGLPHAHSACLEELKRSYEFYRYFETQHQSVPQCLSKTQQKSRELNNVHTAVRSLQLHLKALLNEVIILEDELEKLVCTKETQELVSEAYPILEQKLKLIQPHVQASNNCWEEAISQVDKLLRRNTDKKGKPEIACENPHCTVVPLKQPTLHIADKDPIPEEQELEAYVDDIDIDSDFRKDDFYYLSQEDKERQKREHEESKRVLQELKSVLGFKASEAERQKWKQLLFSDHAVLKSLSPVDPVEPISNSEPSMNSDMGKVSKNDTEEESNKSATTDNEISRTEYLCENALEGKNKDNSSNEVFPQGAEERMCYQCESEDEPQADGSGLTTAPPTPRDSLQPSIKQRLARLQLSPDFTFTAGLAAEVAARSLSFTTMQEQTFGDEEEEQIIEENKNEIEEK
The test can be described thus: protein array.

The target in a further test is T10, DEAD-box helicase 53 (human, UniProt Q86TM3 1-631).
T10 construct: on protein array; also called DDX53
The test can be described thus: protein array.

Test [7] addresses T11, HEAT repeat containing 3, transcript variant 1 (human, UniProt Q7Z4Q2 1-680).
T11 construct: on protein array; also called HEATR3
T11 sequence: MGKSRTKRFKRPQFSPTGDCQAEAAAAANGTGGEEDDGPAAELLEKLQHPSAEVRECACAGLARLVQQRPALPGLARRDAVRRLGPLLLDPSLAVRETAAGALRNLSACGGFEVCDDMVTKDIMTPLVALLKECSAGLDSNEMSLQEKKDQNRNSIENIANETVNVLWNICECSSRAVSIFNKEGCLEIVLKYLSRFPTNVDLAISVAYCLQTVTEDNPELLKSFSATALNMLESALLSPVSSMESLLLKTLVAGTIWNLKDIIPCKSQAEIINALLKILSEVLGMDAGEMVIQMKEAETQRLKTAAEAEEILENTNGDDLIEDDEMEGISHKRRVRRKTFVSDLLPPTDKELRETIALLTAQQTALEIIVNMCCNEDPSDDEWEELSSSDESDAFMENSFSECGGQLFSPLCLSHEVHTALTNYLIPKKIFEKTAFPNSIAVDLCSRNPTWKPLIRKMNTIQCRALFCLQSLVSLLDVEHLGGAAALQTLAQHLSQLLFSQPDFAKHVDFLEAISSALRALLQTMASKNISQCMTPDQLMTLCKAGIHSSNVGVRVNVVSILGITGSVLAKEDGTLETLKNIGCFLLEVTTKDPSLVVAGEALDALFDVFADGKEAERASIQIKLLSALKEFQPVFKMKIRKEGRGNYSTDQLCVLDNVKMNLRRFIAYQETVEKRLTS
The test can be described thus: protein array, with experimental replicate.

T10 sequence (Q86TM3 other isoform, or with tags, fused parts or gaps limits assumed): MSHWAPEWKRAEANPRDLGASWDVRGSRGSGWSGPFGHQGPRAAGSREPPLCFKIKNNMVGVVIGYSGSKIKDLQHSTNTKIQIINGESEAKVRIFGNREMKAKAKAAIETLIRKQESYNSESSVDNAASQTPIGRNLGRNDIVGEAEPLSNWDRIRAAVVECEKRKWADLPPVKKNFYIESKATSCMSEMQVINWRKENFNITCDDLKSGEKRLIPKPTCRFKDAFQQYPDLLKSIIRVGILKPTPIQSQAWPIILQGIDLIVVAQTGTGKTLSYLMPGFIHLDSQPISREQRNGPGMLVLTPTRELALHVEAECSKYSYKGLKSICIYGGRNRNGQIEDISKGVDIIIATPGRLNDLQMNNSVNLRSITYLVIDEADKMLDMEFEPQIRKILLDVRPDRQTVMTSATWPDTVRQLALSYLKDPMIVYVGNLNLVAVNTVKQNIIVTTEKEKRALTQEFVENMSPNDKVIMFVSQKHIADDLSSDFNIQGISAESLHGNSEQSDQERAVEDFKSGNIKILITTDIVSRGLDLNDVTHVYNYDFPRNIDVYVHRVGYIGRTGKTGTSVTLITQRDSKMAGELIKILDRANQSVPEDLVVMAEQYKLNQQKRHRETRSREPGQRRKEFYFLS
T3 sequence (P23258 whole entry): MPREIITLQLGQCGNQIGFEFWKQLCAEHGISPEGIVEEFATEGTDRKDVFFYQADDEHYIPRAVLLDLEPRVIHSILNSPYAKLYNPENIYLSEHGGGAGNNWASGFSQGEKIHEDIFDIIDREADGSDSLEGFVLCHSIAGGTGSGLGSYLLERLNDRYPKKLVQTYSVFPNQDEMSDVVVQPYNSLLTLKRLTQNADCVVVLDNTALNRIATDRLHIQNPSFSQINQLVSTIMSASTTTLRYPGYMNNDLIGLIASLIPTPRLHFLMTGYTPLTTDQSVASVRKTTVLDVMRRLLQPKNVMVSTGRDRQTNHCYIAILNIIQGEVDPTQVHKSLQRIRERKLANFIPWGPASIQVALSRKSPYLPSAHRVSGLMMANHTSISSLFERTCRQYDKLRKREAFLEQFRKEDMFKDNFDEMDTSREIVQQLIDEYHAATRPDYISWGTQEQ
T4 sequence (Q13596 whole entry, change not shown): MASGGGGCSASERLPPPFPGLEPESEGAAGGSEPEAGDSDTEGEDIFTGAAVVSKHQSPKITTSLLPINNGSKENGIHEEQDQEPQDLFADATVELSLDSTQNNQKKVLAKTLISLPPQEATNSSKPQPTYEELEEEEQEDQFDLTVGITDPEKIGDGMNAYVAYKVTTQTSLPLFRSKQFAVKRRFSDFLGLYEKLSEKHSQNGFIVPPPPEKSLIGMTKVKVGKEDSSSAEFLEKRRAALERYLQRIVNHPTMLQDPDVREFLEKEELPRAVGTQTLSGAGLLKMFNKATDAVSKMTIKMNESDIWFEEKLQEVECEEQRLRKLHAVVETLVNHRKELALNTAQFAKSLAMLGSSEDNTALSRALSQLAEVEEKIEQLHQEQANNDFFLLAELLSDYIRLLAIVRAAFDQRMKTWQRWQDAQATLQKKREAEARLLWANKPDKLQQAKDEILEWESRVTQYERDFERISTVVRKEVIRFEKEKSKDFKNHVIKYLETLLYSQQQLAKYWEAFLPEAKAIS
T7 sequence (P46109 whole entry, change not shown): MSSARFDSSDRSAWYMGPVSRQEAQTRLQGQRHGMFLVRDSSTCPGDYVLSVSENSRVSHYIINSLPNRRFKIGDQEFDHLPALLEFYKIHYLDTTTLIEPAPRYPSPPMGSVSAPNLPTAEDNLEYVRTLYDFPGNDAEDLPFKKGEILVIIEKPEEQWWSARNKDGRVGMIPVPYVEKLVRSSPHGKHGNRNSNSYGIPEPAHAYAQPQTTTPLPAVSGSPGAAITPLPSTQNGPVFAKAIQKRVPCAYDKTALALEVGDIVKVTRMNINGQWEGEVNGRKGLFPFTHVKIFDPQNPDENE

B1: TPAN1001 (antibody, V domains shown)
VH: QVQLVQSGAEVKKPGSSVKVSCKASRGTFSNHAVSWVRQAPGQGLEWVGGIIPVFGPPNYAQKFRGRVTITADRSTNTAYMELNSLRSEDTAVYYCARTQWGTDVEATNPYYYFMDVWGKGTTVTVSS
VL: EIVLTQSPGTLSLSPGHRATLSCRASQDVASTYLAWYQQKPGQAPRLLIYGASSRATGIPDRFSGSGSGTDFTLTISRLEPEDFAVFYCQYYGGSPGFTFGPGTKVDFKR
notes: VH/VL tied via antigen in summary, not by name in this stretch
As to B1, the binding result in test [1] was “binds”.

B2: TPAN1007 (antibody, V domains shown)
VH: PVQLVQSGAEVKKPGESLKISCQGSGYNFSRYWIGWVRQMPGKGLEWMGVVFPGDSDIRYSLSFQGHITIYADNSISTAYLQWSSLKASDTAIYYCATTSTMPMPTRGRDWFDPWGQGTLVTVSS
VL: PSVLTQPPSVSGAPGQRVTISCTGSSSNIGAGYDVHWYQQLPGTAPKLLIYANTNRPSGVPDRFSGSKSGTSASLAITGLQAEDEADYYCQSYDNSLSGGVFGGGTKLTVLG
notes: as for B1
Take B2: the binding result with F-box protein 2 and with tubulin gamma 1 was “binds” in each case.

B3: TPAN1004 (antibody, V domains shown)
VH: QIQLVQSGAEVKKPGASVKVSCKTSGYTFTHYGVAWVRQAPGQGPEWMGWISPYNGNIEYGQKFQGRVTMTTDTSTNTAYMELRSLRYDDTAVYYCARDLDEINSSWLDPWGQGTLIIVSP
VL: EIVLTQSPATLSLSPGERATLSCRASQSVSSNYLAWYQQKPGQAPRLLIHGASSRATGFPDRFSGSGSGTDFTLTINRLEPEDFAVYYCQQYGTSPQTFGQGTKVEIKR
notes: as for B1
B3: the binding result in test [2] is on record as “binds”.

B4: TPAN1003 (antibody, V domains shown)
VH: QVQLVQSGAEVKKPGASVKISCQAFGYNFIDNAIHWVRQAPGQRPEWMGWINAGNGNTRYSQNFQGRVTITKVTSASTAYMEMSRLKSEDTAVYFCARSSKWTDWHFDYWGQGTLVTVSS
VL: EIVLTQSPGTLSLSPGETATLSCRASQSVANNYLAWHQQKPGQAPRLLIYGASKRAAGIPDRFSGSGSGTEFTLTISRLEPEDCAVYYCQEYVKSPGFAFGPGTRVDIKR
notes: as for B1
On to B4, for which the binding result in test [3] is on record as “binds”.

B5: TOVA1003 (antibody)
VH: GEQLLESGGGLVQPGGSLRLSCAASGFTFSHYAMTWVRQAPGKGLEWVSGVSGSGFTTYYADSVKGRFTISRDNAQNTLYLHMNSLRAEDTAIYYCVKDLEVSIGHNFDFWGQGTLVTVSSASTKGPSVFPLAPSSKSTSGGTAALGCLVKDYFPEPVTVSWNSGALTSGVHTFPAVLQSSGLYSLSSVVTVPSSSLGTQTYICNVNHKPSNTKVDKRV
VL: EVQMTQSPSSLSASVGDRVTITCRASQHIAGRLNWYQQKPGKAPKLLIHSASSVQREVPSRFGGSGFGTDFTLTIYSLQAEDFATYFCQQSYYTPPTFAGGTRVDLKRTVAAPSVFIFPPSDEQLKSGTASVVCLLNNFYPREAKVQWKVDNALQSGNSQESVTEQDSKDSTYSLSSTLTLSKADYEKHKVYACEVTHQGLSSPVTKSFNRGEC
notes: as for B1
On to B5, for which the binding result with Deoxyhypusine synthase is listed as “binds”.

B6: TPAN1006 (antibody, V domains shown)
VH: QVQLVQSGAEVKKPGASVKLSCKPSGYTFSSYYIHWLRQAPGQGLEWMGIINPSGGYTSSAQKFQGRVTMTRDTSTSTIYMELSSLRAEDTAVYYCARRGEVGTMVRVFRKPFDYWGQGTLVTVSS
VL: QSVLTQPPSVSGAPGQRVTISCTGSSSNIGAQYDVHWYKVIPGTAPKLLIYGNDNRPSGVPDRFSGSKSGTSASLAITGLQSEDEADYYCQSNDISLSGSVVFGGGTKLTVLG
notes: as for B1
Turning to B6, the binding result in [4] is listed as “binds”.

B7: TOVA1007 (antibody, V domains shown)
VH: PVQLQESGPGLVNPSQTLSLTCTVSGGSISSGGYCWSWVRQHPGKGLEWIGCIYYIGTTYYMRSLKSRLIISIDTSKNQFSLKLTSVTAADSAVYYCARGGELLGGFGYSGMDVWGQGTTVTVSS
VL: not shown
notes: as for B1
B7: the binding result in test [5] was “binds”.

B8: TOVA1005 (antibody, V domains shown)
VH: QITLKESGPTLVKPTQTLTLTCTFSGFSLSTNGVGVGWIRQPPGKALEWLALINWDDDKRYSPSLKSRLTITKDTSKNQVVLTMTNLDPVDTATYYCVHARDDYGDSAWSTGPVWGQGTLVTVSS
VL: DFLLTQPHSVSESPGKTVTISCTRSSGSIASNYVQWYQQRPGSSPSTVIYEDHQRPSGVPGRFSGSIDSSSNSASLTISGLKTEDEADYFCQSSDSNNHVVFGGGTKLTVLG
notes: as for B1
With B8, the binding result (in test [6]; in the test with DEAD-box helicase 53) was “binds” each time.

B9: TOVA1004 (antibody, V domains shown)
VH: EVQLVESGGGLVKPGGSLRLSCAASGFTFSSYSMNWVRQAPGKGLEWVSSISSSSSYIYYADSVKGRFTISRDNAKNSLYLQMNSLRAEDTAVYYCARDRGVVVVAATPYYYGMDVWGQGTTVTVSS
VL: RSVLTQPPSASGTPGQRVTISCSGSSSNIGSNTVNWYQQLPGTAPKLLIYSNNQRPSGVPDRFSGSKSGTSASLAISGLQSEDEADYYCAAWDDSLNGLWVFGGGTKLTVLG
notes: as for B1
On to B9, for which the binding result in [7] is “binds”.
